Article PMC2481429

biological target: U2AF65 (Homo sapiens) (UniProt P26368); experiment: EMSA; conditions: Gel shift with constant 5'-32P RNA and varying U2AF65, triplicate; buffer, salt, pH and temperature not given (as previously described, ref 49)
Sequence (P26368 whole entry, one chain of several): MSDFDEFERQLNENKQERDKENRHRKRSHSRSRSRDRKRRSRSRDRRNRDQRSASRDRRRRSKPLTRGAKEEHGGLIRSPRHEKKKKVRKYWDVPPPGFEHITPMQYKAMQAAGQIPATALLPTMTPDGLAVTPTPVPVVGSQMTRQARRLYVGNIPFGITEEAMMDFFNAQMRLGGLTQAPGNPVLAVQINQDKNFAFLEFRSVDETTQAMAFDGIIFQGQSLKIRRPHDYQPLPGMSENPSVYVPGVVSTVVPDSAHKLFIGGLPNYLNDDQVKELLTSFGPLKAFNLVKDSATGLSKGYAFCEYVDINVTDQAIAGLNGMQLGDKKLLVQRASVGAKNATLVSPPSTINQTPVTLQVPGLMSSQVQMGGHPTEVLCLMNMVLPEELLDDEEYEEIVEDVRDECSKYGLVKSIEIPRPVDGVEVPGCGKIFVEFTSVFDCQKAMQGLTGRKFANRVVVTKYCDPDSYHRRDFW

Row | Sequence | Kd [nM]
1 | UAAUUCUUUUUUUCUUUCUGCCCUAG [SR140 intron 9 PY tract] | 30
2 | CAAAGGCGUUGGUUUUGUUUCCACAG [INSR intron 10 PY tract] | 8800
3 | GCCCUGACCCCUUUUUUUUGCUGCAG [LCATmut intron 4 PY tract] | 120
4 | UUCGUGCUGACCCUGUCCCUUUUUUUUCCACAGCUGCA [ADML PY tract] | 120
5 | UUCGUGCUGACCCUGUCCCGUAUUAGUCCACAGCUGCA [ADMLmut PY tract] | 15800
6 | CCGCCCACCCCCUCCCCUCACCGCAG [BRUNOL4 intron 9 PY tract] | 3400
7 | UCACCACUCCUUUCUCUUUCAUUCAG [U2AF2 intron 6 PY tract] | 80
8 | GCCCUGACCCCUUCCACCCGCUGCAG [LCAT intron 4 PY tract] | 1900

same assay, conditions: estimated (asterisk), saturation not reached; Gel shift with constant 5'-32P RNA and varying U2AF65, triplicate; buffer, salt, pH and temperature not given (as previously described, ref 49)

Row | Sequence | Kd [nM]
9 | CCCUGGCUCACUCCCCUGCCCUGCAG [ITGB4 intron 31 PY tract] | 52000

same assay, conditions: estimated (asterisk); no detectable binding at concentrations tested; Gel shift with constant 5'-32P RNA and varying U2AF65, triplicate; buffer, salt, pH and temperature not given (as previously described, ref 49)

Row | Sequence | Kd [nM]
10 | CAUGUGCUCGCUGCCUGCUAAUUAAG [MBNL1 intron 6 PY tract] | 100000
